Assay results taken from article PMC8718897 (Translational Oncology, 2021).

Target: Krüppel-like factor 9 (KLF9) (human (endogenous in MDA-MB-231), UniProt Q13886 1-244)
Assay: co-IP

Chain of Krüppel-like factor 9 (KLF9) (Q13886 whole entry): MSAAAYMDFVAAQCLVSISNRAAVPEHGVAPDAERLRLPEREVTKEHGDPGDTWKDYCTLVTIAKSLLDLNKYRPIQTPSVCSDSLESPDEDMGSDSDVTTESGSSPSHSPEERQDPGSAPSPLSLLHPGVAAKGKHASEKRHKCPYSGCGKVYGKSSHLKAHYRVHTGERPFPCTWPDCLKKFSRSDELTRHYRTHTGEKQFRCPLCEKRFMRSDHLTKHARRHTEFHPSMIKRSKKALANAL

- fold increase of association after 24 h with 5 uM PF1-SID peptide: 4.6 fold
- fold increase of association in PF1-SID cells against vector cells: 2.5 fold
B1: SIN3A (natural protein, UniProt Q96ST3 1-1273, looked up)
chain: MKRRLDDQESPVYAAQQRRIPGSTEAFPHQHRVLAPAPPVYEAVSETMQSATGIQYSVTPSYQVSAMPQSSGSHGPAIAAVHSSHHHPTAVQPHGGQVVQSHAHPAPPVAPVQGQQQFQRLKVEDALSYLDQVKLQFGSQPQVYNDFLDIMKEFKSQSIDTPGVISRVSQLFKGHPDLIMGFNTFLPPGYKIEVQTNDMVNVTTPGQVHQIPTHGIQPQPQPPPQHPSQPSAQSAPAPAQPAPQPPPAKVSKPSQLQAHTPASQQTPPLPPYASPRSPPVQPHTPVTISLGTAPSLQNNQPVEFNHAINYVNKIKNRFQGQPDIYKAFLEILHTYQKEQRNAKEAGGNYTPALTEQEVYAQVARLFKNQEDLLSEFGQFLPDANSSVLLSKTTAEKVDSVRNDHGGTVKKPQLNNKPQRPSQNGCQIRRHPTGTTPPVKKKPKLLNLKDSSMADASKHGGGTESLFFDKVRKALRSAEAYENFLRCLVIFNQEVISRAELVQLVSPFLGKFPELFNWFKNFLGYKESVHLETYPKERATEGIAMEIDYASCKRLGSSYRALPKSYQQPKCTGRTPLCKEVLNDTWVSFPSWSEDSTFVSSKKTQYEEHIYRCEDERFELDVVLETNLATIRVLEAIQKKLSRLSAEEQAKFRLDNTLGGTSEVIHRKALQRIYADKAADIIDGLRKNPSIAVPIVLKRLKMKEEEWREAQRGFNKVWREQNEKYYLKSLDHQGINFKQNDTKVLRSKSLLNEIESIYDERQEQATEENAGVPVGPHLSLAYEDKQILEDAAALIIHHVKRQTGIQKEDKYKIKQIMHHFIPDLLFAQRGDLSDVEEEEEEEMDVDEATGAVKKHNGVGGSPPKSKLLFSNTAAQKLRGMDEVYNLFYVNNNWYIFMRLHQILCLRLLRICSQAERQIEEENREREWEREVLGIKRDKSDSPAIQLRLKEPMDVDVEDYYPAFLDMVRSLLDGNIDSSQYEDSLREMFTIHAYIAFTMDKLIQSIVRQLQHIVSDEICVQVTDLYLAENNNGATGGQLNTQNSRSLLESTYQRKAEQLMSDENCFKLMFIQSQGQVQLTIELLDTEEENSDDPVEAERWSDYVERYMNSDTTSPELREHLAQKPVFLPRNLRRIRKCQRGREQQEKEGKEGNSKKTMENVDSLDKLECRFKLNSYKMVYVIKSEDYMYRRTALLRAHQSHERVSKRLHQRFQAWVDKWTKEHVPREMAAETSKWLMGEGLEGLVPCTTTCDTETLHFVSINKYRVKYGTVFKAP
